Measured values as given in US20260048120A1.

Target: Fas receptor (Fas, CD95) on human T cells (human) (UniProt P25445)
Experiment: cell-based or functional assay

Chain of UniProt P25445 (P25445 26-335): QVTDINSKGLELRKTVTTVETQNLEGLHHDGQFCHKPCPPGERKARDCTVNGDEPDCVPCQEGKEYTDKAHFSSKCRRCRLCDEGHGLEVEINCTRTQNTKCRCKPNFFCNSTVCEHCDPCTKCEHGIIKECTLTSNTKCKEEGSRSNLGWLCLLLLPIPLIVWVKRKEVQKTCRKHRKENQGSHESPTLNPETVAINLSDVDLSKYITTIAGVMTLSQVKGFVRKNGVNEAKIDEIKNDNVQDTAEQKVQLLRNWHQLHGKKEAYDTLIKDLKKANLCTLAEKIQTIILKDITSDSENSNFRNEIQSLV

share of CTV-labeled SPPL3-KO primary T cells in a 1:1 mix with CFSE-labeled NT-KO primary T cells after 16 h of 500 ng/mL FasL (49.2% without FasL): 75.3%
Substance: recombinant human FasL (BioLegend) (from UniProt P48023 134-281) (ligand)
cell survival rate (Annexin V- & DAPI-) after about 16 h of 100 ng/mL FasL, SPPL3-KO Jurkat T cells: 63.1%
cell survival rate (Annexin V- & DAPI-) after about 16 h of 100 ng/mL FasL, control (NT-KO) Jurkat T cells: 25.7%
cell survival rate of the Cas9+ sgRNA-iBAR Jurkat T cell library after the first round of 10 ng/ml FasL: 4%
cell survival rate of the Cas9+ sgRNA-iBAR Jurkat T cell library after the second round of 10 ng/ml FasL: 44.8%
cell survival rate of the Cas9+ sgRNA-iBAR Jurkat T cell library after the third round of 10 ng/ml FasL: 55.5%
